Reference: patent US20110145941A1 (LAY LINE GENOMICS S P A, published 2011)

Each binder was assayed against T1, human TrkA receptor on the cell surface (human, UniProt P04629 33-796) (assay: flow cytometry on TF-1 cells, 4 µg/ml).
T1 construct: whole, on cells; PC12-hTrkA: high density; also called hTrkA; huTrkA
Design: Geo Mean Fluorescence: reference not given here

T1 sequence (P04629 33-796): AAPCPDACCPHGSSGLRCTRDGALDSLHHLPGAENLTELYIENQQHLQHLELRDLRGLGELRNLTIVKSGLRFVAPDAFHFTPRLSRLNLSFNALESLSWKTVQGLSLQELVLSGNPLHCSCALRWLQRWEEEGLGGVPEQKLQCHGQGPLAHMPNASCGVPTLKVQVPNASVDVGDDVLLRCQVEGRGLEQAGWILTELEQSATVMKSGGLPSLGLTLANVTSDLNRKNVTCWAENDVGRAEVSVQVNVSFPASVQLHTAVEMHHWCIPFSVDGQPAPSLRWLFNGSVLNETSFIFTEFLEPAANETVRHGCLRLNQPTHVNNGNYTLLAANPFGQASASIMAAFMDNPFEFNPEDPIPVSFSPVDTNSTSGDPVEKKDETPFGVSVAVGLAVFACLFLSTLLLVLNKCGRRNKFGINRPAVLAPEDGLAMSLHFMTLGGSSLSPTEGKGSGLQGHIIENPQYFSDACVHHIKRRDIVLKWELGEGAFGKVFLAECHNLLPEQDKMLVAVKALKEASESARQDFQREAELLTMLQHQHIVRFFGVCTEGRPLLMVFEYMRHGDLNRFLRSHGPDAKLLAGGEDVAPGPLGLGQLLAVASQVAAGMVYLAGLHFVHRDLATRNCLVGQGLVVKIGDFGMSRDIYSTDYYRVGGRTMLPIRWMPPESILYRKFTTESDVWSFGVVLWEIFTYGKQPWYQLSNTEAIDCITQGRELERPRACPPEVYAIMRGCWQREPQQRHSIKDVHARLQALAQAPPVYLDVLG

Binder | Fold Increase | Geo Mean Fluorescence
BXhVH2VL7 (antibody, human IgG1, V domains shown, Human IgG1 constant regions (IgG1 expression vectors); COS-7 supernatant; also called hVH2/hVL7) VH: EVQLLESGGGLVQPGGSLRLSCAASGFTFSTYTMSWVRQTPGKRLEWVAYISKGGGSTYYPDTVKGRFTISRDNSKNTLYLQMNSLRAEDTAVYYCAKGAMYGNDFFYPMDYWGQGTTVTVSS VL: QIVLTQSPATLSLSPGERATLSCSASSSVSYMHWYQQKPGQSPRLLIYTTSNLASGIPSRFSGSGSGTFYTLTISSLEPEDAADYYCHQWSSYPWTFGGGTKLEIK | 1.9 fold | 6.5
BXhVH1VL1 (antibody, human IgG1, V domains shown, Human IgG1 constant regions (IgG1 expression vectors); COS-7 supernatant; also called hVH1/hVL1) VH: EVKLLESGGGLVQPGGSLRLSCAASGFTFSTYTMSWVRQTPGKGLEWVAYISKGGGSTYYPDTVKGRFTISRDNSKNTLYLQMNSLRAEDTAVYYCAKGAMYGNDFFYPMDYWGQGTTVTVSS VL: EIVLTQSPATLSLSPGERATLSCSASSSVSYMHWYQQKPGQAPRLLIYTTSNLASGIPARFSGSGSGTDFTLTISSLEPEDFAVYYCHQWSSYPWTFGQGTKLEIK | 1.7 fold | 5.7
BXhVH1VL5 (antibody, human IgG1, V domains shown, Human IgG1 constant regions (IgG1 expression vectors); COS-7 supernatant; also called hVH1/hVL5) VH: EVKLLESGGGLVQPGGSLRLSCAASGFTFSTYTMSWVRQTPGKGLEWVAYISKGGGSTYYPDTVKGRFTISRDNSKNTLYLQMNSLRAEDTAVYYCAKGAMYGNDFFYPMDYWGQGTTVTVSS VL: QIVLTQSPATLSLSPGERATLSCSASSSVSYMHWYQQKPGQSPRLLIYTTSNLASGIPSRFSGSGSGTDYTLTISSLEPEDAADYYCHQWSSYPWTFGQGTKLEIK | 1.3 fold | 4.5
BXhVH1VL2 (antibody, human IgG1, V domains shown, Human IgG1 constant regions (IgG1 expression vectors); COS-7 supernatant; also called hVH1/hVL2) VH: EVKLLESGGGLVQPGGSLRLSCAASGFTFSTYTMSWVRQTPGKGLEWVAYISKGGGSTYYPDTVKGRFTISRDNSKNTLYLQMNSLRAEDTAVYYCAKGAMYGNDFFYPMDYWGQGTTVTVSS VL: EIVLTQSPATLSLSPGERATLSCSASSSVSYMHWYQQKPGQSPRLLIYTTSNLASGIPSRFSGSGSGTDFTLTISSLEPEDAADYYCHQWSSYPWTFGQGTKLEIK | 1.3 fold | 4.6

Other lines, results leading:

Fold Increase | Geo Mean Fluorescence | Binder
1.5 fold | 5.1 | BXhVH1VL7 (antibody, human IgG1, V domains shown, Human IgG1 constant regions (IgG1 expression vectors); COS-7 supernatant; also called hVH1/hVL7) VH: EVKLLESGGGLVQPGGSLRLSCAASGFTFSTYTMSWVRQTPGKGLEWVAYISKGGGSTYYPDTVKGRFTISRDNSKNTLYLQMNSLRAEDTAVYYCAKGAMYGNDFFYPMDYWGQGTTVTVSS VL: QIVLTQSPATLSLSPGERATLSCSASSSVSYMHWYQQKPGQSPRLLIYTTSNLASGIPSRFSGSGSGTFYTLTISSLEPEDAADYYCHQWSSYPWTFGGGTKLEIK
1.8 fold | 6.1 | BXhVH1VL3 (antibody, human IgG1, V domains shown, Human IgG1 constant regions (IgG1 expression vectors); COS-7 supernatant; also called hVH1/hVL3) VH: EVKLLESGGGLVQPGGSLRLSCAASGFTFSTYTMSWVRQTPGKGLEWVAYISKGGGSTYYPDTVKGRFTISRDNSKNTLYLQMNSLRAEDTAVYYCAKGAMYGNDFFYPMDYWGQGTTVTVSS VL: QIVLTQSPATLSLSPGERATLSCSASSSVSYMHWYQQKPGQSPRLLIYTTSNLASGIPSRFSGSGSGTFYTLTISSLEPEDFAVYYCHQWSSYPWTFGGGTKLEIK
1.4 fold | 4.9 | BXhVH1VL6 (antibody, human IgG1, V domains shown, Human IgG1 constant regions (IgG1 expression vectors); COS-7 supernatant; also called hVH1/hVL6) VH: EVKLLESGGGLVQPGGSLRLSCAASGFTFSTYTMSWVRQTPGKGLEWVAYISKGGGSTYYPDTVKGRFTISRDNSKNTLYLQMNSLRAEDTAVYYCAKGAMYGNDFFYPMDYWGQGTTVTVSS VL: EIVLTQSPATLSLSPGEEATLSCSASSSVSYMHWYQQKPGQSPRLLIYTTSNLASGIPSRFSGSGSGTFYTLTISSLEPEDAADYYCHQWSSYPWTFGGGTKLEIK
1.5 fold | 5.1 | BXhVH1VL4 (antibody, human IgG1, V domains shown, Human IgG1 constant regions (IgG1 expression vectors); COS-7 supernatant; also called hVH1/hVL4) VH: EVKLLESGGGLVQPGGSLRLSCAASGFTFSTYTMSWVRQTPGKGLEWVAYISKGGGSTYYPDTVKGRFTISRDNSKNTLYLQMNSLRAEDTAVYYCAKGAMYGNDFFYPMDYWGQGTTVTVSS VL: QIVLTQSPATLSLSPGERATLSCSASSSVSYMHWYQQKPGQSPRLLIYTTSNLASGIPSRFSGSGSGTDFTLTISSLEPEDAADYYCHQWSSYPWTFGGGTKLEIK
